We go through 5 molecules from patent publication US20160347840A1 (Janssen / Centocor, published 2016).

Positions count from the first letter of the chain named. Names may count otherwise.

The target of assay [1] is T1, human PSMA on tumor cells (LNCaP, MDA-PCA-2B, VCAP, 22Rv1) (human, UniProt Q04609 1-750). Nature of the assay: cell-based or functional assay.
Assay [2] addresses T2, chimpanzee PSMA extracellular domain (PSMW8), 6His and Avi tag (chimpanzee, UniProt Q04609 44-750 (human entry), biotinylated in bead-based selections and the ELISA screen).
T2 construct: Cloned along with a 6His and Avi tag; Buffer with ZnCl2 to stabilise PSMA dimerisation; also called pan 229
T2 chain: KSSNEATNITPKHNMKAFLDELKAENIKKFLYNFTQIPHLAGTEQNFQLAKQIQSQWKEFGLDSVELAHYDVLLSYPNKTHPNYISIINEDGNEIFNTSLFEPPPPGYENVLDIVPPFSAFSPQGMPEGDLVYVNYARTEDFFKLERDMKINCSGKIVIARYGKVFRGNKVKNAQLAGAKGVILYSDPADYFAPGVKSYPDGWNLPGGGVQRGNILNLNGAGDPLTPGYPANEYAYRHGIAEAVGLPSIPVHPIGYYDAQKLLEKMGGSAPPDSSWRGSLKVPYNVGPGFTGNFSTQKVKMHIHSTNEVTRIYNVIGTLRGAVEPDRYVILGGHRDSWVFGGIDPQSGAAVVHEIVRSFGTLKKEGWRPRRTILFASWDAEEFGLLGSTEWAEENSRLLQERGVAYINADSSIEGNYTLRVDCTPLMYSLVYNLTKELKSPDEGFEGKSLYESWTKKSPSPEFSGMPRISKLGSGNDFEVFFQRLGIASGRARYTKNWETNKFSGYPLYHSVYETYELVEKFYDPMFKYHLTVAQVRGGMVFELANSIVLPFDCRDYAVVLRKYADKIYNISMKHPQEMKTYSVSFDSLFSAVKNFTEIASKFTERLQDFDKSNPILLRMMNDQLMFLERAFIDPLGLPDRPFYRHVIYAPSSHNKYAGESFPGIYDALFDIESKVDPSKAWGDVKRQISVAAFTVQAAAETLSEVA
Nature of the assay: hit from CIS-display panning and ELISA screen on PSMA of this species (column Antigen species). For orientation: In an ELISA, binding on a coated surface is turned into a signal by an enzyme label.

Assay [3] addresses T1, human PSMA on tumor cells (LNCaP, …). Nature of the assay: cell-based or functional assay. This is another data set of the same source.
In assay [4] the target is T3, isolated cynomolgus PSMA (cynoPSMA) extracellular domain, Fc removed (cynomolgus, UniProt Q04609 44-750 (human entry), N-linked glycans seen at Asn-76, -121, -140, -195, -459, -476, -613 and -638 (numbering of SEQ ID NO: 141)).
T3 construct: Expressed in GnTI- cells as a C-terminal fusion to huIgG1 Fc; the ECD starts at residue 44 of that entry; the structure includes residues 57-750; also called cynomolgous PSMA dimer
T3 chain: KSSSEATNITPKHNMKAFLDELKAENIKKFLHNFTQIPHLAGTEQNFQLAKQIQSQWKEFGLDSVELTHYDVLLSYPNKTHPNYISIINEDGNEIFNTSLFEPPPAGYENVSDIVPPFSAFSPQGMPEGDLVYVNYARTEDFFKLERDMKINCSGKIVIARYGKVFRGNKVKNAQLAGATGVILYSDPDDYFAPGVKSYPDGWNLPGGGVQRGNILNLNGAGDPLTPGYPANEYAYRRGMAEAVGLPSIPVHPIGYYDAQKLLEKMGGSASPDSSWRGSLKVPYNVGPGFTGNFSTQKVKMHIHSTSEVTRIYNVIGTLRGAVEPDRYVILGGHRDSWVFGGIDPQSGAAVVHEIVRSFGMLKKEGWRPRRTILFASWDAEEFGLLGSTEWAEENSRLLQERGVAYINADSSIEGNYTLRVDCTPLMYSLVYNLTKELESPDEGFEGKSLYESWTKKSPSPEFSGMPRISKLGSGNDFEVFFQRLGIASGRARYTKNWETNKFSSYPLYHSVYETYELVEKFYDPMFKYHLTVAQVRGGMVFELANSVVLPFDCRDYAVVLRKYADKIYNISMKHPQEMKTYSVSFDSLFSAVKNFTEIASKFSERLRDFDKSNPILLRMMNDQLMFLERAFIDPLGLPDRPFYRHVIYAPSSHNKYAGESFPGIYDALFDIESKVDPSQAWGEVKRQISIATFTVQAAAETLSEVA
Nature of the assay: X-ray crystal structure of the complex. As to the method:
The H10 FN3 Domain/cynoPSMA complex was prepared by mixing cynoPSMA with H10 FN3 domain at a molar ratio of 1:3 (excess FN3 domain) while dialyzing for 48 h at 4° C. against 20 mM Hepes pH 7.0, 0.5 mM ZnCl₂. The complex was then eluted from a monoS column with a gradient of 48-68 mM NaCl, 20 mM Hepes pH 7.5, 10% glycerol and concentrated to 3.4 mg/mL. Crystals suitable for X-diffraction were obtained from 25% PEG 3 kDa, 0.2 M NH₄Cl, 0.1 M Na Acetate pH 4.5 using the sitting drop vapor-diffusion method at 20° C.
For X-ray data collection, the crystal was soaked for a few seconds in a cryo-protectant solution containing mother liquor supplemented with 20% glycerol, and then frozen in liquid nitrogen. X-ray diffraction data were collected with a Dectris Pilatus 6M Pixel Array detector at the beamline 17-ID of the Advanced Photon Source (APS) at Argonne National Laboratory. Diffraction data were processed with the program HKL2000 (Otwinowski & Minor, 1997).

Assay [5] concerns the target T4, cynomolgus CD3E on primary cynomolgus CD4+ T cells (cynomolgus, UniProt Q95LI5 22-198).
T4 construct: whole, on cells; On the cells CD3E stands in the CD3/T cell receptor complex
Nature of the assay: stated for the flow cytometry assay on primary cynomolgus CD4+ T cells. (In general: In flow cytometry, cells or beads pass a laser one at a time.)

Assay [6] concerns the target T5, cell-surface CD3E on primary human T cells (human, UniProt P07766 23-207).
T5 construct: whole, on cells; On the cells CD3E stands in the CD3/T cell receptor complex; also called human CD3
Nature of the assay: flow cytometry on primary human T cells, positive control. As to the method:
The resulting panel of anti-CD3 antibodies was tested for binding against cell-surface CD3E on primary human T cells. To do this, binding of antibodies from expression supernatants was visualized using a polyclonal anti-human secondary antibody and analyzed by flow cytometry. Briefly, binding of anti-CD3 antibodies to cell-surface CD3E was assessed by flow cytometry using primary Human T lymphocytes purified by negative selection (Biological Specialty, Colmar, USA). Expression supernatants or purified antibodies were normalized to 10 μg/ml in media or FACS buffer (BD BioSciences), respectively. 2×10⁵ cells were aliquoted into wells of a 96 well round-bottomed plate (CoStar) for labeling. Antibodies in expression supernatant were added to cells and incubated for 45 min at 4° C. Following centrifugation at 1300 rpm for 3 min and removal of supernatant, 50 μL of anti-human IgG (H+L) Alexa Fluor 647 secondary antibody (Life technologies Inc.) was incubated with the cells at a final concentration of 10 μg/mL for 30 min at 4° C. away from direct light. Following washing and resuspension in 30 μL FACs buffer (BD BioSciences). Sample collection was performed on an Intellicyt HTFC system using ForeCyt software. […] Graphs were generated in GraphPad Prism version 5 using mean fluorescence intensity values. […]

Assay [7] deals with T5, cell-surface CD3E on primary human T …. Nature of the assay: flow cytometry on primary human T cells, anti-human IgG Alexa Fluor 647 secondary. The method, then: (§1) The resulting panel of anti-CD3 antibodies was tested for binding against cell-surface CD3E on primary human T cells. To do this, binding of antibodies from expression supernatants was visualized using a polyclonal anti-human secondary antibody and analyzed by flow cytometry. Briefly, binding of anti-CD3 antibodies to cell-surface CD3E was assessed by flow cytometry using primary Human T lymphocytes purified by negative selection (Biological Specialty, Colmar, USA). Expression supernatants or purified antibodies were normalized to 10 μg/ml in media or FACS buffer (BD BioSciences), respectively. 2×10⁵ cells were aliquoted into wells of a 96 well round-bottomed plate (CoStar) for labeling. Antibodies in expression supernatant were added to cells and incubated for 45 min at 4° C. Following centrifugation at 1300 rpm for 3 min and removal of supernatant, 50 μL of anti-human IgG (H+L) Alexa Fluor 647 secondary antibody (Life technologies Inc.) was incubated with the cells at a final concentration of 10 μg/mL for 30 min at 4° C. away from direct light. Following washing and resuspension in 30 μL FACs buffer (BD BioSciences). Sample collection was performed on an Intellicyt HTFC system using ForeCyt software. Viable single cells were gated prior to analysis of binding using the green or red fixable live/dead dyes (Life Technologies Inc.) and forward/side scatter area and height parameters, respectively. Graphs were generated in GraphPad Prism version 5 using mean fluorescence intensity values.
Two in-house phage-derived antibodies with the same Fc region as the therapeutic antibodies were used as controls: G11 (HC SEQ ID NO:176, LC SEQ ID NO:177), a non-cyno cross-reactive, agonistic antibody was used as a positive control and CD3B94 (HC-SEQ ID NO:178, LC—SEQ ID NO:179) a non-binder/non-agonistic antibody was used to assess non-specific binding. The commercial SP34 antibody was not used as a comparator in this assay since it is a mouse antibody and the use of a different secondary detection reagent would have prohibited direct comparison with the variants tested.

The target of assay [8] is T4, cynomolgus CD3E on primary cynomolgus …. Nature of the assay: flow cytometry on primary cynomolgus CD4+ T cells. The method, then:
as §1
Binding analysis of the anti-CD3 hits to primary cynomolgusCD4+ T cells was then tested in order to assess the retention of cross-reactivity. Purified CD4+ T cells from the peripheral blood of cynomolgus monkeys (Zen Bio, Triangle Research Park, USA were used). Assay protocols were similar to those described above. […] This included the strong binders CD3B150, CD3B151 and CD3B154, in which binding was reduced, and several weak binders where binding could no longer be detected over background.

T1 sequence (Q04609 whole entry, the tested form may be a part): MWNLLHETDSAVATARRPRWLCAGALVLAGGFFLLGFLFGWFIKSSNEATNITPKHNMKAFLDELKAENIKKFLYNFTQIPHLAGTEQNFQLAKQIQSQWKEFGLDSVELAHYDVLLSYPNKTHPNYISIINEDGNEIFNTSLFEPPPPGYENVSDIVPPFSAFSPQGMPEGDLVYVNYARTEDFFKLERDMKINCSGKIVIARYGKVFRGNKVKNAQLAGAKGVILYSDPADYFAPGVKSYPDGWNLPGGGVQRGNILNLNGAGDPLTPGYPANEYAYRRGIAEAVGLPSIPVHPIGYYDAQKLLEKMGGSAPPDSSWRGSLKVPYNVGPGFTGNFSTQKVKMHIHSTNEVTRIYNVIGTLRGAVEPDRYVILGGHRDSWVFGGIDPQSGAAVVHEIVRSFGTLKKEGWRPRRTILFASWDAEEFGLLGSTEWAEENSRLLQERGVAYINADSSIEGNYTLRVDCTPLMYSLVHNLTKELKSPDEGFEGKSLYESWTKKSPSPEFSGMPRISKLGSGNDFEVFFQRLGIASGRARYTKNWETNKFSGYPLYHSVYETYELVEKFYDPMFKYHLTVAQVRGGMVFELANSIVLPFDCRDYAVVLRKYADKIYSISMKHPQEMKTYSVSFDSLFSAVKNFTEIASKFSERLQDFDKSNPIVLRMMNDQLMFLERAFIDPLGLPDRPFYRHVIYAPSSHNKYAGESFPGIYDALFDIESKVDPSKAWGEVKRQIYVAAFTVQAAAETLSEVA
T4 sequence (Q95LI5 22-198): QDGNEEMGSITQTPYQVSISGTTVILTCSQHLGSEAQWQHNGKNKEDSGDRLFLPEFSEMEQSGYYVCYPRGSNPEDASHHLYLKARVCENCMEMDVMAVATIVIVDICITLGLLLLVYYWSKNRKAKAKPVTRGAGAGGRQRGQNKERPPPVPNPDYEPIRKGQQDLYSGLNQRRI
T5 sequence (P07766 23-207): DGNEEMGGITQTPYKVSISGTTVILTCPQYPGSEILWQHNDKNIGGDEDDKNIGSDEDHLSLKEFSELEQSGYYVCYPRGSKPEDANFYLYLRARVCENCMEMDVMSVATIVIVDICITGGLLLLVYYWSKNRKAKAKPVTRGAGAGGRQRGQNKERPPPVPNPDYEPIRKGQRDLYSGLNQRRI

B1: P233FR9_H10 (designed binder)
chain: LPAPKNLVVSRVTEDSARLSWTAPDAAFDSFAIGYWEWDDDGEAIVLTVPGSERSYDLTGLKPGTEYPVYIAGVKGGQWSFPLSAIFTT
notes: also called H10 FN3 domain; P233FR9_10; not shown: C-terminal poly-histidine tag
For the molecule B1, the “LNCaP IC50 (nM), cytotoxicity of the FN3 domain-vcMMAF conjugate (CellTiter-Glo)” value in assay [1] came to 0.4 nM. Moreover, the binding result in assay [2] was “binds”. In assay [3], the “LNCaP cells IC50 (nM), cytotoxicity of FN3 domain-drug conjugate” value was found to be 0.5 nM; the “MDA-PCA-2B cells IC50 (nM), cytotoxicity of FN3 domain-drug conjugate” value came to 5.8 nM; the “VCAP cells IC50 (nM), cytotoxicity of FN3 domain-drug conjugate” value amounted to 25.9 nM. Besides, the binding result in assay [4] is reported as “binds”.

B2: G11 (antibody, V domains shown)
VH: EVQLLESGGGLVQPGGSLRLSCAASGFTFSSYGMSWVRQAPGKGLEWVSGINGGGGSKYYADSVKGRFTISRDNSKNTLYLQMNSLRAEDTAVYYCAKTSAQRFDYWGQGTLVTVSS
VL: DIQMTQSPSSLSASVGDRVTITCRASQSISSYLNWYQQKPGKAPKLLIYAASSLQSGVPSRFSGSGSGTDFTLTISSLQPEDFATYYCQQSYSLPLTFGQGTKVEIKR
notes: In-house phage-derived anti-CD3 antibody; non-cyno cross-reactive, agonistic; positive control; also called G11 mAb
Turning to B2, the results for the binding result in assay [5] and in assay [6] were “no binding” and “binds”, respectively.

B3: CD3B154 (antibody, human IgG1, V domains shown)
VH: EVQLLESGGGLVQPGGSLRLSCAASGFTFNTYAMNWVRQAPGKGLEWVARIRSKYNNYATYYADSVKGRFTISRDNSKNTLYLQMNSLRAEDTAVYYCVKHGNFGNSYVSWFAYWGQGTLVTVSS
VL: QTVVTQEPSLTVSPGGTVTLTCRSSTGAVTTSNYANWVQQKPGQAPRGLIGGTNKRAPGTPARFSGSLLGGKAALTLSGVQPEDEAEYYCALWYSNLWVFGGGTKLTVL
notes: Humanized SP34 variant; human IgG1 constant region with L234A, L235A, F405L; human lambda constant region; also called CDB154
Regarding B3, the binding result in assay [7] and in assay [8] was “binds” each time.

B4: CD3B150 (antibody, human IgG1, V domains shown)
VH: B3 VH with V99A
VL: B3 VL
notes: Humanized SP34 variant; human IgG1 constant region with L234A, L235A, F405L; human lambda constant region; also called CDB150
B4: the binding result in assay [7] and in assay [8] was “binds” throughout.

B5: CD3B151 (antibody, human IgG1, V domains shown)
VH: B3 VH
VL: B3 VL with T2A, V80A
notes: Humanized SP34 variant; human IgG1 constant region with L234A, L235A, F405L; human lambda constant region; also called CDB151
Regarding B5, the binding result in assay [7] and in assay [8] was “binds” throughout.
